The results in this text go back to article PMC2064468 (The Journal of Cell Biology, 2007).

The test concerns the target T1, FtsY (bacterial SRP receptor), wild type, as used in the GTPase assays (Escherichia coli, UniProt P10121 1-497).
T1 sequence (looked up): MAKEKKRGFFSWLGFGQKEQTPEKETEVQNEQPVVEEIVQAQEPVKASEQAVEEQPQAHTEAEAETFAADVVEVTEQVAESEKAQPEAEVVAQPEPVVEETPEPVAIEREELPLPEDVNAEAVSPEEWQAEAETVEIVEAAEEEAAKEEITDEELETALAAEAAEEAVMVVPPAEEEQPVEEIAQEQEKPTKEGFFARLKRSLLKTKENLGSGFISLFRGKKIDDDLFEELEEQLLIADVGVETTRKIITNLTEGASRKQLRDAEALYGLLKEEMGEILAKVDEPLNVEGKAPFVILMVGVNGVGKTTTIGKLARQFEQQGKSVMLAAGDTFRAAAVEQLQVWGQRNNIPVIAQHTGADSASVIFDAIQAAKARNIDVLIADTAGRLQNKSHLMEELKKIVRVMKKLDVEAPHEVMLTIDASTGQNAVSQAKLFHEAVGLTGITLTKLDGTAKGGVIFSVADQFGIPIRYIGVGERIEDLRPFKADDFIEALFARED
Nature of the test: GTPase inhibition.

B1: SRP with Ffh A144W (bound to the 4.5S SRP RNA) (natural protein, Escherichia coli, UniProt P0AGD7 1-453, looked up)
chain: MFDNLTDRLSRTLRNISGRGRLTEDNVKDTLREVRMALLEADVALPVVREFINRVKEKAVGHEVNKSLTPGQEFVKIVRNELVAAMGEENQTLNLAAQPPAVVLMAGLQGAGKTTSVGKLGKFLREKHKKKVLVVSADVYRPAWIKQLETLAEQVGVDFFPSDVGQKPVDIVNAALKEAKLKFYDVLLVDTAGRLHVDEAMMDEIKQVHASINPVETLFVVDAMTGQDAANTAKAFNEALPLTGVVLTKVDGDARGGAALSIRHITGKPIKFLGVGEKTEALEPFHPDRIASRILGMGDVLSLIEDIESKVDRAQAEKLASKLKKGDGFDLNDFLEQLRQMKNMGGMASLMGKLPGMGQIPDNVKSQMDDKVLVRMEAIINSMTMKERAKPEIIKGSRKRRIAAGCGMQVQDVNRLLKQFDDMQRMMKKMKKGGMAKMMRSMKGMMPPGFPGR
As a reminder, the Ki is the equilibrium dissociation constant of an inhibitor or competing ligand from its target. B1 gave an inhibitory constant (Ki) of 260 nM.
